From PMC7458460 (Science Advances, 2020)

B1: RCAN1 CN-binding domain (residues 89 to 197) (domain or fragment)
chain: not shown
B2: p38-phosphorylated RCAN1 (residues 89 to 197) (domain or fragment)
chain: not shown
modifications: pS108, pS112, pT124, pT153, pT192 (pT152 partially, much more slowly)

Biological target: CN391 (CNA_(1–391)/CNB_(1–170)) (UniProt Q08209 1-391; P63098 1-170)
Assay: ITC

CN391 (CNA_(1–391)/CNB_(1–170)), sequence (Q08209 1-391, chain 1 of 2): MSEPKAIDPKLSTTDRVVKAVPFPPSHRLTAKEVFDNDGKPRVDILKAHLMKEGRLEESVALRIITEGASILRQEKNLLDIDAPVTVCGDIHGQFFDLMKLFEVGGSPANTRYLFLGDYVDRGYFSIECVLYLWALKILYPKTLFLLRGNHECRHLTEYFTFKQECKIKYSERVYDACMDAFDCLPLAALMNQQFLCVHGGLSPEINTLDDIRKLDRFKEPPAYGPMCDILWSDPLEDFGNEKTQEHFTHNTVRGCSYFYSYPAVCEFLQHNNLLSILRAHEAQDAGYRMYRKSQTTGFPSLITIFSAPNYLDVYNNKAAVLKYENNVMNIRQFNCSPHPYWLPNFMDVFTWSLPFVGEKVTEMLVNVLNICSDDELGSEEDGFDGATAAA
CN391 (CNA_(1–391)/CNB_(1–170)), sequence (P63098 whole entry, chain 2 of 2): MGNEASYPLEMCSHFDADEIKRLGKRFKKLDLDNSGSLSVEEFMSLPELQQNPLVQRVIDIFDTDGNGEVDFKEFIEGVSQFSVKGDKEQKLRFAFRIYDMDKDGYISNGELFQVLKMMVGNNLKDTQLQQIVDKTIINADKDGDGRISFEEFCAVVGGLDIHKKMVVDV

Binder | Kd | dH
B1 | 16 ± 5 nM | -30.7 ± 0.8 kcal/mol
B2 | 429 ± 85 nM | -32.4 ± 1.6 kcal/mol
